Data set [1] deals with Chaetomium thermophilum p44 (residues 1-285) (Chaetomium thermophilum).
For data set [2], the system named is ctXPD F192A (Chaetomium thermophilum). The data set is described as follows: BLI. The note with it: 3'-biotin; BLI (Octet RED): 20 mM Tris-HCl pH 8.0, 150 mM NaCl, 10 mM MgCl2, 1 mM DTT, 1 mg/ml BSA; 0.5-5 uM ctXPD; temperature not stated.
In data set [3] the test system is ctXPD K48R (Chaetomium thermophilum). Description: BLI. The note with it: 3'-biotin; BLI (Octet RED): 20 mM Tris-HCl pH 8.0, 150 mM NaCl, 10 mM MgCl2, 1 mM DTT, 1 mg/ml BSA; 0.5-5 uM ctXPD; temperature not stated.
Data set [4] has as its system ctXPD K719W (Chaetomium thermophilum). Description: BLI. The note with it: 3'-biotin; BLI (Octet RED): 20 mM Tris-HCl pH 8.0, 150 mM NaCl, 10 mM MgCl2, 1 mM DTT, 1 mg/ml BSA; 0.5-5 uM ctXPD; temperature not stated.
In data set [5] the test system is ctXPD R195A (Chaetomium thermophilum). Description: BLI. The note with it: 3'-biotin; BLI (Octet RED): 20 mM Tris-HCl pH 8.0, 150 mM NaCl, 10 mM MgCl2, 1 mM DTT, 1 mg/ml BSA; 0.5-5 uM ctXPD; temperature not stated.
Data set [6] has as its system ctXPD R195E (Chaetomium thermophilum). Description: BLI. The note with it: 3'-biotin; BLI (Octet RED): 20 mM Tris-HCl pH 8.0, 150 mM NaCl, 10 mM MgCl2, 1 mM DTT, 1 mg/ml BSA; 0.5-5 uM ctXPD; temperature not stated.
The subject of data set [7] is ctXPD Y156A (Chaetomium thermophilum). The data set is described as follows: BLI. The note with it: 3'-biotin; BLI (Octet RED): 20 mM Tris-HCl pH 8.0, 150 mM NaCl, 10 mM MgCl2, 1 mM DTT, 1 mg/ml BSA; 0.5-5 uM ctXPD; temperature not stated.
Data set [8] has as its system ctXPD wild type (Chaetomium thermophilum). The data set is described as follows: BLI. The note with it: 3'-biotin; BLI (Octet RED): 20 mM Tris-HCl pH 8.0, 150 mM NaCl, 10 mM MgCl2, 1 mM DTT, 1 mg/ml BSA; 0.5-5 uM ctXPD; temperature not stated.
In data set [9] the test system is ctXPD wild type;ctp44 (1-285) (Chaetomium thermophilum;Chaetomium thermophilum). Description: BLI. The note with it: 3'-biotin; BLI (Octet RED): 20 mM Tris-HCl pH 8.0, 150 mM NaCl, 10 mM MgCl2, 1 mM DTT, 1 mg/ml BSA; 0.5-5 uM ctXPD; temperature not stated.

With “Chaetomium thermophilum XPD K719W (enzyme)”, in [1], the fluorescence-based helicase activity of ctXPD K719W with ctp44 (1-285) added (Rel. Fluorescence Change·s^−1) stood at 4.8 and the ssDNA-dependent ATPase activity of ctXPD K719W with ctp44 (1-285) added (mol ATP·s^−1 ·mol^−1 XPD) was found to be 0.12.
The substance “Chaetomium thermophilum XPD wild type (enzyme)” gave a ssDNA-dependent ATPase activity of ctXPD with ctp44 (1-285) added (0.12 without ctp44) (mol ATP·s^−1 ·mol^−1 XPD) in data set [1] of 0.7.
“GACTACGTACTGTTACGGCTCCATCTCTACCGCAATCAGGCCAGATCTGC [50-nt ssDNA (BLI)]”: the dissociation constant (Kd) was 668 nM in [2]; 159 nM in data set [3]; 192 nM in [4]; 1040 nM in data set [5]; 916 nM in data set [6]; 561 nM in data set [7]. Moreover, the Kd turned out to be 118 nM in data set [8] and 93 nM in data set [9].

The values are drawn from publication PMC4182028.
